Test results reported in patent US20070016969.

Target: hirudin in milk of BC1-GB-Hir transgenic mice (UniProt P01050)
Sequence (P01050 whole entry): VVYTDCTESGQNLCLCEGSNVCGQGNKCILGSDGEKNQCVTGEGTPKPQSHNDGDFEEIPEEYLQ

## thrombin (thrombin solution, 50 U/ml)
  anti-coagulation activity (chromogenic thrombin substrate Tos-Gly-Pro-Arg-4-NA, A405): milk collected from lactating transgenic mice of the invention has a high level of anti-coagulation activity in comparison with that from non-transgenic mice (normal mouse milk)
